Like-named read-outs stand apart in the source and are kept apart here.
Legend:
human Bcl-2 ΔC22 [1] = molecular target: T1, human Bcl-2 ΔC22 (human, UniProt P10415 1-217); test: solution competition on Biacore
T1 construct: Recombinant, bacterial, N-terminal HexaHis fusion; hydrophobic C-terminus removed; also called hBcl-2

human Bcl-xL ΔC24 [2] = molecular target: T2, human Bcl-xL ΔC24 (human, UniProt Q07817 1-209); test: solution competition on Biacore
T2 construct: Expressed as GST fusion and cleaved off the glutathione column; also called hBcl-xL ΔC24
T2 sequence (Q07817 other isoform, or with tags, fused parts or gaps mutant limits assumed): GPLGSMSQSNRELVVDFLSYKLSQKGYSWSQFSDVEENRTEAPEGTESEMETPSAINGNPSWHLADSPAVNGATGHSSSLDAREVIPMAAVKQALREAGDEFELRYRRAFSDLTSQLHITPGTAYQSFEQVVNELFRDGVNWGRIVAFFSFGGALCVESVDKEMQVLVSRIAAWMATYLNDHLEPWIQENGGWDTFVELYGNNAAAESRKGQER

[3] = molecular target: T3, human Bcl-w ΔC29 (C29S A128E) (human, UniProt Q92843 1-164); test: solution competition on Biacore
T3 construct: range 1-164; residues 1-209), which are those of Bcl-xL; also called hBcl-w
T3 sequence: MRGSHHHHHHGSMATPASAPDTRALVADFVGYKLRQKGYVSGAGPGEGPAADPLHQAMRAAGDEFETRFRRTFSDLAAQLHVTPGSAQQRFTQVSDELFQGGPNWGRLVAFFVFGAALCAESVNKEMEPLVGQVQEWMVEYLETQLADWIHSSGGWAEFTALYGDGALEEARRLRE

human Bcl-2 ΔC22 [4] = molecular target: T1, human Bcl-2 ΔC22; test: Biacore solution competition against immobilised mouse wtBimBH3
From the text: (§1) The baseline response (control channel) was subtracted to obtain the absolute binding response. […] Theoretically, IC50=[A]/2+KD, where [A] is the analyte concentration.
(§2) To assess if other BH3 peptides bind pro-survival proteins similarly, we directly compared their binding affinities in solution using a competitive binding assay. […] As the IC50 values reflect relative binding affinities (see Experimental Procedures), we used this assay to compare the binding affinities of eight BH3 peptides (Table 3) to the five pro-survival proteins.

human Bcl-xL ΔC24 [5] = molecular target: T2, human Bcl-xL ΔC24; test: as above
From the text: as §1, §2

[6] = molecular target: T3, human Bcl-w ΔC29 (C29S A128E); test: as above
From the text: as §1, §2

[7] = molecular target: T4, FLAG-tagged mouse Mcl-1 (full-length) (mouse, UniProt P97287 1-331); test: co-immunoprecipitation from 293T lysates, 35S fluorography (D) and immunoblot of the same filters (E) [E]
T4 construct: whole, on cells; Full-length, expressed in 293T cells, precipitated from lysates; also called FLAG-Mcl-1; Mcl-1 (in cells)
T4 sequence (P97287 other isoform, or with tags, fused parts or gaps): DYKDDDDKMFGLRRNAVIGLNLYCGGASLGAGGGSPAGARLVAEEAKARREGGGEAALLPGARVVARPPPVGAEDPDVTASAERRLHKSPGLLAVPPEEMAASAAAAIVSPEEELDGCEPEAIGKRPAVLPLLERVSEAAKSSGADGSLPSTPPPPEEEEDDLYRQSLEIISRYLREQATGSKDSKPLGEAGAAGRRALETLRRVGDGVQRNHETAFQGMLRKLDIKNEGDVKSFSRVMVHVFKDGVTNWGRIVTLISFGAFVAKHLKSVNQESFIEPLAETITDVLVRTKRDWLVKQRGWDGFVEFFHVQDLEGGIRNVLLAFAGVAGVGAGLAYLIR
From the text: (§3) Equivalent ³⁵S-labeled lysates harvested from 293T cells were immunoprecipitated with antibodies to the HA, FLAG (FL) or control (C) tags.
(§4) The maintenance, transfection and metabolic labeling of the human embryonic kidney (HEK) 293T cells with ³⁵S-methionine/cysteine (NEN) as well as co-immunoprecipitation have been described (Huang et al., Supra; Moriishi et al., Proc Natl Acad Sci USA 96:9683-9688, 1999; O'Conner et al., Supra). Briefly, equivalent TCA-precipitable lysates were immunoprecipiated using the mouse monoclonal antibodies to HA (HA.11; CRP), FLAG (M2; Sigma) and control Glu-Glu (CRP) tags. The proteins were resolved by SDS:PAGE, transferred onto nitrocellulose membranes and detected by fluorography (Amplify; Amersham Biosciences).

human Bcl-xL ΔC24 [8] = molecular target: T2, human Bcl-xL ΔC24; test: Biacore solution competition against immobilised mouse wtBimBH3; remark: listed apart in the source
From the text: FIG. 1 is a graphical representation showing competitive binding assays. […] (C) Solution competition assay. […] The line (at 430 s) indicates the response used for calculating the IC50. […] (Irregular responses after 500 s are due to washing the chips after analyte dissociation). Color reproductions are available from the patentees on request.
The baseline response (control channel) was subtracted to obtain the absolute binding response.

human Bcl-xL ΔC24 [9] = molecular target: T2, human Bcl-xL ΔC24; test: SPR direct binding, protein over immobilised NoxaBH3
Procedure: Affinity measurements were performed at room temperature on a Biacore 3000 biosensor (Biacore) with HBS (10 mM HEPES pH 7.2, 150 mM NaCl, 3.4 mM EDTA, 0.005% Tween 20) as the running buffer. […] Residual bound proteins were desorbed with 50 mM NaOH or 6 M GuHCl (pH 7.2), followed by two washes with running buffer. Binding kinetics were derived from sensorgrams, following subtraction of baseline responses, using BIA evaluation software (version 3, Biacore) (Wilson-Annan et al., Supra).

human Bcl-xL ΔC24 [10] = molecular target: T2, human Bcl-xL ΔC24; test: solution competition on Biacore, immobilised m wtBimBH3
From the text: as §1

[11] = molecular target: T3, human Bcl-w ΔC29 (C29S A128E); test: solution competition on Biacore (FIG. 9C)
From the text: as §1

human Bcl-2 ΔC22 [12] = molecular target: T1, human Bcl-2 ΔC22; test: Biacore solution competition against immobilised mouse wtBimBH3; remark: listed apart in the source
From the text: as §1

human Bcl-xL ΔC24 [13] = molecular target: T2, human Bcl-xL ΔC24; test: solution competition on Biacore (FIG. 9C)
From the text: as §1

[14] = molecular target: T3, human Bcl-w ΔC29 (C29S A128E); test: Biacore solution competition against immobilised mouse wtBimBH3; remark: listed apart in the source
From the text: as §1

human Bcl-xL ΔC24 [15] = molecular target: T2, human Bcl-xL ΔC24; test: solution competition on Biacore (IC50 ratio)
[16] = molecular target: T5, FLAG-tagged human Bcl-xL (full-length) (human, UniProt Q07817 1-233); test: co-immunoprecipitation from 293T lysates, 35S fluorography (F) and immunoblot of the same filters (G) [G]
T5 construct: whole, on cells; Full-length, expressed in 293T cells, precipitated from lysates; also called FLAG-Bcl-xL; Bcl-xL (in cells)
T5 sequence (Q07817 other isoform, or with tags, fused parts or gaps): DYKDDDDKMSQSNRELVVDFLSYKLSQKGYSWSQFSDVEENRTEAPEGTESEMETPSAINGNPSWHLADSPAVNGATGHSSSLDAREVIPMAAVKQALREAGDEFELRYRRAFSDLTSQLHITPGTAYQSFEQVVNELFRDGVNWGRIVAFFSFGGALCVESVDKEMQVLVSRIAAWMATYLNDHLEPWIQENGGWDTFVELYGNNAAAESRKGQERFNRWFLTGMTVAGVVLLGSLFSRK
From the text: as §3, §4

[17] = molecular target: T6, FLAG-tagged human Bcl-2 (full-length) (human, UniProt P10415 1-239); test: as above
T6 construct: whole, on cells; Full-length, expressed in 293T cells, precipitated from lysates; also called FLAG-Bcl-2; Bcl-2 (in cells)
T6 sequence (P10415 other isoform, or with tags, fused parts or gaps): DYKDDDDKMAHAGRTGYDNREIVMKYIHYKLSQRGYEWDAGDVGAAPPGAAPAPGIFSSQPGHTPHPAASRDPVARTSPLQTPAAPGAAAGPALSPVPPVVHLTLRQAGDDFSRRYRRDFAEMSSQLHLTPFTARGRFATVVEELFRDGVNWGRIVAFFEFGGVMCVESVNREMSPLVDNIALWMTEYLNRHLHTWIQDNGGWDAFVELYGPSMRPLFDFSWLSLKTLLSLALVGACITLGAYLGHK
From the text: as §3, §4

T1 sequence (P10415 other isoform, or with tags, fused parts or gaps mutant limits assumed): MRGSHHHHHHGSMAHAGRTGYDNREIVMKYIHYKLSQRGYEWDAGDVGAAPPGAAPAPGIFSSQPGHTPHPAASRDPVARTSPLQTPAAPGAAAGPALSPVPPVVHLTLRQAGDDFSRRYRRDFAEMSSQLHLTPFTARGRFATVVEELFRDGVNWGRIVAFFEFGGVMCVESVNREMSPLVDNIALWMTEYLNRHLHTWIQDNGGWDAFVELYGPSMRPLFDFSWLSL

RAELPPEFAAQLRKIGDKVYCTWSAP (also called mouse Noxa BH3 peptide 1) [m Noxa1 (16-41) BH3 peptide]: no binding (human Bcl-2 ΔC22 [1]); no binding (human Bcl-xL ΔC24 [2]); no binding [3].

NLWAAQRYGRELRRMSDEFVDSFKKG (also called BadBH3) [Bad (103-128) BH3 peptide, human] was tested, and the IC50 (human Bcl-2 ΔC22 [4]) was 16 nM, the IC50 (human Bcl-xL ΔC24 [5]) was 5.3 nM and the IC50 [6] was 30 nM.

HRAEVQIARKLQCIADQFHRLHTQ (also called BmfBH3) [m Bmf (128-151) BH3 peptide] gave an IC50 (human Bcl-2 ΔC22 [4]) of 3 nM, an IC50 (human Bcl-xL ΔC24 [5]) of 9.7 nM and an IC50 [6] of 9.8 nM.

B1: HA-tagged full-length mouse Bad (other)
chain: YPYDVPDYAMGTPKQPSLAPAHALGLRKSDPGIRSLGSDAGGRRWRPAAQSMFQIPEFEPSEQEDASATDRGLGPSLTEDQPGPYLAPGLLGSNIHQQGRAATNSHHGGAGAMETRSRHSSYPAGTEEDEGMEEELSPFRGRSRSAPPNLWAAQRYGRELRRMSDEFEGSFKGLPRPKSAGTATQMRQSAGWTRIIQSWWDRNLGKGGSTPSQ
notes: whole, on cells; also called HA-Bad; Bad (in cells)
B1: no binding [7].

MEGSDALALRLACIGDEMDVSLRAP (also called BikBH3; hBik) [Bik (51-75) BH3 peptide, human] was tested, and the IC50 (human Bcl-xL ΔC24 [5]) was 43 nM, the IC50 [6] was 12 nM and the “IC50 (read off the curve)” value (human Bcl-xL ΔC24 [8]) was about 40 nM.

B2: Hrk (26-51) BH3 peptide, human (peptide)
peptide: not shown
notes: also called HrkBH3
In the case of B2, the IC50 (human Bcl-2 ΔC22 [4]) is reported as 320 nM, the IC50 (human Bcl-xL ΔC24 [5]) is reported as 3.7 nM and the IC50 [6] is reported as 49 nM.

PAELEVECATQLRRFGDKLNFRQKLL (also called NoxaBH3; wt NoxaBH3) [Noxa (18-43) BH3 peptide, human] was tested, and the IC50 (human Bcl-2 ΔC22 [4]) was over 100000 nM, the IC50 (human Bcl-xL ΔC24 [5]) was over 100000 nM and the IC50 [6] was over 100000 nM. The binding result (human Bcl-xL ΔC24 [9]) was “no binding” and the IC50 (human Bcl-xL ΔC24 [10]) was over 100000 nM.

B3: Noxa (18-43) mt3 (peptide)
peptide: PAELEVECATQLRRIGDELNFRQKLL
notes: also called Noxa m3 (peptide); double mutant K35E F32I
For B3, the IC50 [11] was 410 nM, the binding result (human Bcl-2 ΔC22 [12]) was “binds” and the IC50 (human Bcl-xL ΔC24 [2]) was 100 nM. For the same binder, the IC50 (human Bcl-xL ΔC24 [10]) was 110 nM.

With PAELEVECATQLRRFGDELNFRQKLL (also called Noxa m1; K35E) [Noxa (18-43) mt1] the “fold increase of binding against wt NoxaBH3” value (human Bcl-xL ΔC24 [13]) was over 20 fold, the IC50 (human Bcl-2 ΔC22 [12]) was over 100000 nM and the binding result [14] was “binds”. The IC50 (human Bcl-xL ΔC24 [10]) was 5800 nM and the “fold tighter than the wild-type peptide” value (human Bcl-xL ΔC24 [15]) was at least 17 fold.

In the case of PAELEVECATQLRRIGDKLNFRQKLL (also called Noxa m2; F32I) [Noxa (18-43) mt2], the “fold increase of binding against wt NoxaBH3” value (human Bcl-xL ΔC24 [13]) is reported as over 100 fold, the IC50 (human Bcl-2 ΔC22 [12]) is reported as over 100000 nM and the binding result [14] is reported as “binds”. For the same binder, the IC50 (human Bcl-xL ΔC24 [10]) was 1100 nM and the “fold tighter than wild type” value (human Bcl-xL ΔC24 [15]) was at least 90 fold.

DIIRNIARHLAQVGDSMDRSIPPG (also called BidBH3) [Bid (81-104) BH3 peptide, human] was tested, and the IC50 (human Bcl-2 ΔC22 [4]) was 6800 nM, the IC50 (human Bcl-xL ΔC24 [5]) was 82 nM and the IC50 [6] was 40 nM.

B4: HA-tagged full-length mouse Noxa (other)
chain: YPYDVPDYAMPGRKARRNAPVNPTRAELPPEFAAQLRKIGDKVYCTWSAPDITVVLAQMPGKSQKSRMRSPSPTRVPADLKDECAQLRRIGDKVNLRQKLLNLISKLFNLVT
notes: whole, on cells; also called HA-Noxa; Noxa (full-length mouse Noxa bearing two BH3s)
B4: no binding [16]; no binding [17].

B5: m Noxa2 (68-93) BH3 peptide (peptide)
peptide: PADLKDECAQLRRIGDKVNLRQKLLN
notes: also called mNoxa B; mouse Noxa BH3 peptide 2
B5: no binding (human Bcl-2 ΔC22 [1]); no binding (human Bcl-xL ΔC24 [2]); no binding [3].

From patent US20080027145A1 (published 2008)
